Assay results as given in publication PMC11784222.

How the values were obtained:
[1] = target: N protein in the pVC vector (pVC-N) (HP-PRRSV-2 strain HuN4); experiment: split reporter (BiFC, NanoBiT); BiFC in HEK293T cotransfected with pVN and pVC plasmids, 24 hpt; YFP signal by confocal microscopy and ratio of YFP-positive cells by flow cytometry
[2] = target: GP5 in the pVC vector (pVC-GP5) (HP-PRRSV-2 strain HuN4); experiment: as above

| Substance | percent of fluorescence-positive cells (BiFC) [1] [%] | percent of fluorescence-positive cells (BiFC) [2] [%] |
| --- | --- | --- |
| nsp2 in the pVN vector (pVN-nsp2) (natural protein) | 32.1 |  |
| N protein in the pVN vector (pVN-N) (natural protein) |  | 3.87 |
